Experimental data from PMC13379313.

Assays:
[1] = molecular target: TW1 (DtxR-Geminin coiled-coil-SpyCatcher) (UniProt P0DJL7); test: mass photometry; TW1, TW2 or assembled TW at a final concentration of 10 nM on the slide; 25 mM HEPES pH 7.4, 200 mM KCl, 5 mM MgCl2, 0.2 mM EDTA
[2] = molecular target: TW2 (TrpR-Geminin coiled-coil-SpyTag-Geminin coiled-coil-MetJ) (UniProt P0A881); test: as above

| Substance | stoichiometry N [1] | stoichiometry N [2] |
| --- | --- | --- |
| TW1 (DtxR-Geminin coiled-coil-SpyCatcher) (from UniProt P0DJL7 2-121; O75496 110-145) | 2 |  |
| TW2 (TrpR-Geminin coiled-coil-SpyTag-Geminin coiled-coil-MetJ) (from UniProt P0A881 2-10; O75496 110-145; O75496 110-145; P0A8U6 2-105) |  | 2 |
